In patent US7241873B2, “Recombinant anti-osteopontin antibody and use thereof” (Juridical Foundation the Chemo-sero-therapeutic Research …, priority 2001, dated 2007):

Experiments:
[1] = target: T1, human OPN (GST-OPN-a, GST-OPN-b, GST-OPN-c, GST-N half, GST-C half, CHO/OPN-a, thrombin-cleaved OPN) (Homo sapiens, UniProt P10451); assay: Western blotting of murine monoclonal antibodies with OPN and thrombin digestion products; type: binding
T1 construct: cDNAs encoding the full-length human OPN-a and OPN-b individually including the respective signal peptide regions; made in house; host or cells: Escherichia coli JM109
T1 sequence (P10451 17-168): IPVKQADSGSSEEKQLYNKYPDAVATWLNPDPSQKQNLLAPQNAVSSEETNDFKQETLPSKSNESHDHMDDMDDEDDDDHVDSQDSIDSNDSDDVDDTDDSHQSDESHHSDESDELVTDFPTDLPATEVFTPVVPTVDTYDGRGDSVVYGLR
Method: (§1) The binding potencies of the murine monoclonal antibodies 2K1 (referred to as “murine 2K1 antibody” hereinafter) and 4C1 recovered in the Example 2 to OPN and the thrombin digestion products thereof were tested by Western blotting method. […] Further, these monoclonal antibodies were not only bound to the recombinant OPNs of non-glycosylated type as generated in Escherichia coli but also reacted with the CHO/OPN-a protein of sugar-chain-bound type and the thrombin digestion products thereof (referred to as “thrombin-cleaved OPN” hereinafter).

[2] = test system: human OPN (GST-OPN-a, GST-OPN-b, GST-OPN-c, GST-N half, GST-C half, CHO/OPN-a, thrombin-cleaved OPN); assay: as above; type: binding
Method: as §1

[3] = test system: adhesion of human fibroblast TIG-7 to CHO/OPN-a; assay: Inhibition of TIG-7 cell adhesion to OPN; type: cell-based
Method: (§2) It was examined by the following method as to whether or not the murine monoclonal antibodies inhibited cell adhesion to OPN. First, a 96-well plate was precoated with various concentrations of the CHO/OPN-a at 4° C. overnight, which was then treated with 0.5% BSA in PBS under conditions of 37° C. for 10 minutes, so as to block non-specific adhesion. A human fibroblast TIG-7 or SW480 cell transformed with the cDNA of an integrin subunit α9 (referred to as “α9-transformed SW480 cell” hereinafter) was suspended in D-MEM containing 0.25% BSA; 200 μl of the resulting cell suspension (at a cell concentration of 5×10^4 cells/well) was injected in a 96-well plate precoated with the CHO/OPN-a or nOPN, in the presence or absence of various concentrations of the monoclonal antibodies or synthetic peptides, for incubation at 37° C. for one hour.
(§3) The culture medium was discarded from the plate, and all the wells were rinsed twice with D-MEM containing 0.25% BSA. The adherent cells were fixed and stained with 0.5% crystal violet in 20% methanol for 30 minutes.
All the wells were rinsed three times with water, and the adherent cells were then solubilized into 20% acetic acid. The resulting supernatant recovered from each well was analyzed with an immunoreader, to measure the absorbance at 590 nm to determine the relative count of the cells adhering to the well. All the assays were done in a triplicate fashion, and at least three independent experiments were performed. The values shown represent mean at three independent experiments.

[4] = test system: adhesion of TIG-7 cell to vitronectin (VN) or fibronectin (FN); assay: TIG-7 cell adhesion to vitronectin or fibronectin; type: cell-based, human
[5] = test system: adhesion of α9-transformed SW480 cell to nOPN; assay: Adhesion of α9-transformed SW480 cell to nOPN; type: cell-based, human; conditions: FIG. 2B
Method: as §2, §3
All the wells were rinsed three times with water, and the adherent cells were then solubilized into 20% acetic acid. The resulting supernatant recovered from each well was analyzed with an immunoreader, to measure the absorbance at 590 nm to determine the relative count of the cells adhering to the well. […]

[6] = test system: adhesion of α9-transformed SW480 cell to vitronectin; assay: Adhesion of α9-transformed SW480 cell to vitronectin; type: cell-based, human; conditions: FIG. 2B
[7] = test system: OPN-induced migration of human monocyte U937; assay: OPN-induced U937 cell migration test (ChemoTx); type: cell-based; conditions: U937, OPNs 10 μg/ml, antibody 50 μg/ml, FIG. 3b
Method: A cell migration test using the U937 cell was performed by using a system ChemoTx101-8 (Neuro Probe Inc.). The cell was adjusted to 2×10^6 cells/ml with D-MEM containing 0.1% BSA, which was then applied to the upper layer on a filter (with a pore size of 8 μm), while the OPN protein was added to the lower layer.
The ChemoTx plate was left to stand in the presence of 5% CO2 at 37° C. for 4 hours. After the plate was left to stand, the filter was fixed with methanol, and was then stained with hematoxylin and eosin (H-E). The number of the cells migrating to the back face of the filter was counted with a microscope (magnification×400). The test was done in a triplicate manner, and the mean was used as data.

[8] = test system: human peripheral neutrophil migration toward thrombin-cleaved OPN; assay: Migration of TNF-α-activated human peripheral neutrophil toward thrombin-cleaved OPN; type: cell-based; conditions: for Mean migrating cell counts per 1 mm^3 (neutrophil): thrombin-cleaved OPN 10 μg/mL
Method: (§4) By the Ficoll method, a monocyte fraction and a neutrophil fraction were separated from normal human peripheral blood (P. M. Daftarian et al., (1996): Journal of Immunology, 157, 12–20). The intermediate layer between Ficoll and serum was collected and cultured in a flask at 37° C. for one hour. The resulting attached cell was used as monocyte. To the erythrocyte layer remaining after collection of the monocyte fraction was added a 5-fold volume of 3% dextran-PBS to aggregate erythrocyte, followed by centrifugation at 150×g and 4° C. for 5 minutes.
(§5) The aggregated erythrocyte was precipitated, while in the resulting supernatant, neutrophil existed in suspended state. Then, the fraction was centrifuged at 500×g and ambient temperature for 20 minutes, to recover neutrophil. The monocyte and neutrophil as recovered in such manner were cultured overnight with human TNF-α (20 ng/mL) for activation. Then, the resulting activated monocyte and neutrophil were used for migration experiments.
(§6) The migration experiments were done, using a 48-well micro chemotaxis chamber (manufactured by Neuro Probe Inc.). After various concentrations of the murine 2K1 antibody were added to the thrombin-cleaved OPN and were then preliminarily left to stand at 37° C. for 15 minutes, the mixtures were added to the lower chamber (to a final human OPN concentration of 10 μg/mL). Placing thereon a polycarbonate filter (pore size of 5 μm), further, a cell suspension (2×10^6 cells/mL) of 50 μL was added to the upper chamber.
(§7) After culturing in the presence of 5% CO2 at 37° C. for 2 hours, the polycarbonate filter was removed to discard the cells on the upper surface of the filter; subsequently, the cells infiltrating to the back face of the filter were stained with Diff-Quick (manufactured by Baxter International Inc.). The stained cells were counted at a magnification×40. The results are shown as mean cell counts (cells/mm^3)±SD in 6 wells.

[9] = test system: human peripheral monocyte migration toward thrombin-cleaved OPN; assay: Migration of TNF-α-activated human peripheral monocyte toward thrombin-cleaved OPN (murine 2K1); type: cell-based; conditions: for Mean migrating cell counts per 1 mm^3 (monocyte): thrombin-cleaved OPN 10 μg/mL
Method: as §4, §5, §6, §7

B1: murine 2K1 antibody: murine monoclonal antibody from mice immunized with Peptide 1 (…) of human OPN; hybridoma FERM BP-7883 (antibody, V domains shown)
VH: QVQLQQSGAELVRPGASVKLSCKALGYTFTDYEMHWVKQTPVHGLEWIGAIHPGRGGTAYNQKFKGKATLTADKSSSTAYMELSSLTSEDSAVYYCTRITGYFDVWGAGTTVTVSS
VL: DVLMTQTPLSLPVSLGDQASISCRSSQSIVHSNGNTYLEWYLQKPGQSPKLLIYKVSNRFSGVPDRFSGSGSGTDFTLKISRVEAEDLGVYYCFQGSHVPLTFGAGTKLELKR
notes: murine monoclonal antibody from mice immunized with Peptide 1 (…) of human OPN; hybridoma FERM BP-7883
B1 was tested, and the “reactivity with GST-N half” value [1] was “reacted”, the “reactivity with GST-OPN-a, GST-OPN-b, GST-OPN-c” value [2] was “reacted” and the “effect on the inhibition of cell adhesion, comparison and concentration dependence” value ([3]; TIG-7, FIG. 1C) was “comparative to the effect exerted by mAb53 and is concentration-dependent”. For the same molecule, the “inhibition of cell adhesion to OPN” value ([3]; antibody 200 μg/ml, TIG-7, FIG. 1B) was “apparently inhibited”, the “inhibition of adhesion of TIG-7 cell to vitronectin (VN) or fibronectin (FN)” value [4] was “never inhibit” and the “inhibition of adhesion between SW480 cell and nOPN” value [5] was “inhibited”. For the same molecule, the “inhibition of adhesion between α9-transformed SW480 cell and vitronectin” value [6] was “never inhibited”, the “inhibition of monocyte migration induced by CHO/OPN-a, thrombin-cleaved OPN and GST-N half” value [7] was “apparently inhibits” and the “inhibition of migration of TNF-α-activated human peripheral neutrophil toward thrombin-cleaved OPN” value [8] was “inhibited”. The “Mean migrating cell counts per 1 mm^3 (neutrophil)” value ([8]; antibody 0.4 μg/mL) was 566.7 ± 60.2 counts per 1 mm^3, the “Mean migrating cell counts per 1 mm^3 (neutrophil)” value ([8]; antibody 2 μg/mL) was 550.0 ± 49.0 counts per 1 mm^3 and the “Mean migrating cell counts per 1 mm^3 (neutrophil)” value ([8]; antibody 10 μg/mL) was 450.0 ± 90.8 counts per 1 mm^3. The “Mean migrating cell counts per 1 mm^3 (neutrophil)” value ([8]; antibody 50 μg/mL) was 426.7 ± 30.8 counts per 1 mm^3, the “inhibition of migration of TNF-α-activated human peripheral monocyte toward thrombin-cleaved OPN” value [9] was “inhibited” and the “Mean migrating cell counts per 1 mm^3 (monocyte)” value ([9]; antibody 0.4 μg/mL) was 258.0 ± 71.9 counts per 1 mm^3. The “Mean migrating cell counts per 1 mm^3 (monocyte)” value ([9]; antibody 2 μg/mL) was 256.7 ± 66.5 counts per 1 mm^3, the “Mean migrating cell counts per 1 mm^3 (monocyte)” value ([9]; antibody 10 μg/mL) was 160.0 ± 56.9 counts per 1 mm^3 and the “Mean migrating cell counts per 1 mm^3 (monocyte)” value ([9]; antibody 50 μg/mL) was 75.0 ± 55.4 counts per 1 mm^3.
